Source: patent US20190262431

Molecular target: active (phosphorylated) human Syk (Merck Millipore) (UniProt P43405)

“catalytically inactive human C373A Cbl-b^29-483 mutant (recombinant, GST fusion protein)” was tested, and the “in vitro poly-ubiquitination of active Syk (Western blot)” value was “did not show Syk poly-ubiquitination activity”.
